B1: ADR4-3 (other)
chain: EVQLLESGGGLVQPGGSLRLSCAASGFTFAQYRMAWVRQAPGKGLEWVSQINAQGTQTGYADSVKGRFTISRDNSKNTLYLQMNSLRAEDTAVYYCAKWVGGARYTFDYWGQGTLVTVSS
B2: ADR4-10 (other)
chain: EVQLLESGGGLVQPGGSLRLSCAASGVSVSAYTMSWVRQAPGKGLEWVSAILKKNGSTYYADSVKGRFTISRDNSKNTLYLQMNSLRAEDTAVYYCAGRPSVTFGGPGKRYDYHFQYWGQGTLVTVSS
B3: ADR4-13 (other)
chain: EVQLLESGGGLVQPGGSLRLSCAASGFSISYKNMAWVRQAPGKGLEWVSAIKAANGSTYYADSVKGRFTISRDNSKNTLYLQMNSLRAEDTAVYYCATGSQKKRTYTFDFWGQGTLVTVSS
B4: ADR4-7 (other)
chain: EVQLLESGGGLVQPGGSLRLSCAASGYSVTYQNMAWVRQAPGKGLEWVSTITVPNGSTYYADSVKGRFTISRDNSKNTLYLQMNSLRAEDTAVYYCAGLGEVLRDGNANVQFWGQGTLVTVSS
B5: ADR4-12 (other)
chain: EVQLLESGGGLVQPGGSLRLSCAASGDTVSSKAMAWVRQAPGKGLEWVSGIFIPNGSTYYADSVKGRFTISRDNSKNTLYLQMNSLRAEDTAVYYCAAKQRAVLSRWGSSTEFGSWGQGTLVTVSS
B6: ADR4-8 (other)
chain: EVQLLESGGGLVQPGGSLRLSCAASGFSLSYKVMGWVRQAPGKGLEWVSAINRENGSTYYADSVKGRFTISRDNSKNTLYLQMNSLRAEDTAVYYCAGFARRGAPHSASVEFWGQGTLVTVSS
B7: ADR4-11 (other)
chain: EVQLLESGGGLVQPGGSLRLSCAASGVIFTDQTMGWVRQAPGKGLEWVSAIKTRDGSTYYADSVKGRFTISRDNSKNTLYLQMNSLRAEDTAVYYCARFLRPNASRGSAREAQIHSWGQGTLVTVSS
B8: ADR4-6 (other)
chain: EVQLLESGGGLVQPGGSLRLSCAASGFRVSNYDLTWVRQAPGKGLEWVSTISATNGSTYYADSVKGRFTISRDNSKNTLYLQMNSLRAEDTAVYYCAAVTWWLLRHNDNLGFWGQGTLVTVSS
B9: ADR4-4 (other)
chain: EVQLLESGGGLVQPGGSLRLSCAASGFTFLDYQMSWVRQAPGKGLEWVSGISRSGNKTKYADSVKGRFTISRDNSKNTLYLQMNSLRAEDTAVYYCAKWAGLNRHDFDYWGQGTLVTVSS
B10: ADR4-5 (other)
chain: EVQLLESGGGLVQPGGSLRLSCAASGDRISSEFMGWVRQAPGKGLEWVSAIYKPNGSTYYADSVKGRFTISRDNSKNTLYLQMNSLRAEDTAVYYCARGRARRTESTYQLRYWGQGTLVTVSS
B11: ADR4-9 (other)
chain: EVQLLESGGGLVQPGGSLRLSCAASGVRLSHQVMGWVRQAPGKGLEWVSAIRSSDGSTYYADSVKGRFTISRDNSKNTLYLQMNSLRAEDTAVYYCAGWRSAKSQMHYWGQGTLVTVSS

Target: native, highly purified SAP2 preparation (Candida albicans, UniProt P0CS83 57-398)
Experiment: cell-based or functional assay

Chain of native, highly purified SAP2 preparation (P0CS83 57-398 limits assumed): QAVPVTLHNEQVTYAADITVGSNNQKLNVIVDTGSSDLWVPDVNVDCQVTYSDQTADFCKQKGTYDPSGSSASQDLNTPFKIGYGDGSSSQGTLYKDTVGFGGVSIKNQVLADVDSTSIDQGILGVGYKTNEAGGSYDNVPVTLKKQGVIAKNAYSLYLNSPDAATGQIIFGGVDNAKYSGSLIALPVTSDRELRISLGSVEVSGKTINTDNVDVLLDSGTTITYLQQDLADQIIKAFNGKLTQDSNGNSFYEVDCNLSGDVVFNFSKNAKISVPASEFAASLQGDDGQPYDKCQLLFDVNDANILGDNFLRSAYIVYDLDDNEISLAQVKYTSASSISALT

In order of falling % Inhibition (BSA degradation, proteinase enzyme assay):
1. pepstatin A (peptide)  100%
2. B3  82%
3. B8  78%
4. B4  61%
5. B5  60%
6. B1  40%
7. B9  32%
8. B7  29%
9. B2  13%
10. B11  5%
11. B6  0%
12. B10  0%

In order of rising ΔOD/ml/min (BSA degradation, proteinase enzyme assay):
1. pepstatin A (peptide)  0.36 ΔOD/ml/min
2. B3  0.46 ΔOD/ml/min
3. B8  0.5 ΔOD/ml/min
4. B5  0.6 ΔOD/ml/min
5. B1  0.66 ΔOD/ml/min
6. B4  0.7 ΔOD/ml/min
7. B9  0.76 ΔOD/ml/min
8. B7  0.8 ΔOD/ml/min
9. B2  0.83 ΔOD/ml/min
10. B11  0.93 ΔOD/ml/min
11. B6  1 ΔOD/ml/min
12. B10  1 ΔOD/ml/min

Source: patent publication US20080193450A1 (ISTITUTO SUPERIORE DI SANITA, published 2008)
